Assay results: paper PMC13326754

Tests used:
[1] = tested on: U2AF1beta;U2AF2beta (Fritillaria borealis;Fritillaria borealis); experiment: EMSA; conditions: 330 nM U2AF; never exceeded 5% bound; EMSA: 20 mM Hepes, 0.1 M NaCl, 5% glycerol, 0.5% Tween-20, pH 7.8, 50 ng/ul BSA, 0.5 mM TCEP, 0.5 mM EDTA; 1 h on ice; 6% PAGE 0.5x TBE at 4 C
[2] = tested on: U2AF1alpha;U2AF2beta (Fritillaria borealis;Fritillaria borealis); experiment: EMSA; conditions: 330 nM U2AF; never exceeded 5% bound; EMSA: 20 mM Hepes, 0.1 M NaCl, 5% glycerol, 0.5% Tween-20, pH 7.8, 50 ng/ul BSA, 0.5 mM TCEP, 0.5 mM EDTA; 1 h on ice; 6% PAGE 0.5x TBE at 4 C

GGGCUGUCCUCUUUUUUUUUUCAGGCGUCU [ORN.PyU]
binding signal [1]: < 5 % bound | binding signal [2]: < 5 % bound

GGGUCGCUUCUCCCCCCCCCUAGGCGUCU [ORN.PyC]
binding signal [1]: < 5 % bound | binding signal [2]: < 5 % bound
